# Measured values taken from patent publication US6034053A, “EGF-isoflavone conjugates for the prevention of restenosis” (Wayne Hughes Institute, priority 1998, dated 2000).
# Entries after “also recorded” stand apart in the source; their conditions may differ.
# Columns and labels:
# [1] = tested on: vascular injury-induced neointimal hyperplasia; assay: Murine restenosis model: photoactivated rose bengal vascular injury of the femoral artery, histomorphometric analysis; format: in vivo, C57B1/6 mice; conditions: for Stenosis Index (Mean ± SE), neointima/media ratio in areas of maximum neointimal hyperplasia, 2 weeks: 2 weeks after injury, EGF-Gen or unconjugated EGF 0.1 mg/kg/dose twice daily for 14 days; for Effect on neointimal hyperplasia / neointima formation (in words): injured femoral arteries, EGF-Gen at less than 5% of the highest nontoxic dose
# Experimental: Three to four week old C57 B1/6 male mice (Taconic, Germantown, N.Y.) were housed in micro-isolator cages on a 12-hour day/night cycle and kept for 2 weeks on the Paigen's cocoa butter diet of 15.8% fat, 1.25% cholesterol and 0.5% sodium cholate (Harlan Teklad, Madison, Wis., U.S.A.) to induce high plasma cholesterol levels similar to those of patients with lipid disorders.
# Mice were injected with 300 microliters of a 3 mg/ml photoactivated rose bengal solution (Aldrich, Milwaukee, Wis.) in sterile PBS via the tail vein and anesthetized with ketamine/xylazine solution (100 mg ketamine/kg and 5 […]). Photoactivation of rose bengal using percutaneous irradiation with a green light source (300 Watt Xenon arced lamp equipped with a 550 nanometer broad band interference filter, Oriel Scientific, Stratford, Conn.) was performed on the shaved left leg by placing a 3.2 mm glass fiber optic light guide directly into the left femoral vein/artery for 10 minutes. The unirradiated right femoral artery served as an internal control.
# Following irradiation the mice were treated for either 14 days or 28 days with intraperitoneal injections of (1) EGF-Gen conjugate or unconjugated EGF (modified EGF not conjugated to genistein) at a dose level of 0. I mg/kg/dose once in the morning and once in the evening; or (2) 2 mg/kg/dose of unconjugated genistein or derivatives of 6,7-dimethoxyquinizalone dissolved in 10% DMSO once per day; or (3) with PBS.
# At the times indicated, the animals were euthanized with ketamine/xylazine and perfused with PBS followed by 4% phosphate buffered formalin. PBS and formalin were pumped through the left ventricle of the heart and allowed to exit through a 3 mm incision through the interior wall of the right ventricle. The brain, thymus, heart, lung, liver, pancreas, kidney, spleen, intestine, stomach, muscle, skin adrenal, and testes were collected for pathological evaluation. For histopathological studies, tissues were fixed in 10% neutral buffered formalin, dehydrated and embedded in paraffin by routine methods. Tissue blocks containing the femoral artery/vein were excised and post-fixed in 4% phosphate buffered formalin overnight and processed for hemotoxylin and eosin (H&E) or Masson's trichrome staining. Glass slides were affixed with 6 micron tissue sections and were stained with hematoxylin and eosin or Masson's trichrome. Serial sections were examined for areas of maximum neointimal hyperplasia for which the ratios of neointima/media (stenosis index) were determined. This was necessary to compensate for angular differences among specimens. A Pixera camera (Pixera Corp., Calif., USA) was used for image capture and the NIH image 1.61(Rasband et al., 1995, Microbeam Analysis Soc. J. 4:137-149) program was used for histo-morphometric analysis.
# All numeric data are shown as mean±SEM. Statistical analysis between groups was performed by Mann-Whitney t-test or Fisher's exact test using Instat, GraphPad Software, San Diego, Calif. Cumulative percentage plots were analyzed using Wilcoxon statistics by Statview, Abacus Concepts, Inc., Berkeley, Calif.
# Vascular injury was induced in C57B1/6 mice as described for Example 2. Following irradiation, the mice were treated for either 14 days or 28 days with intraperitoneal injections of (1) EGF-Gen or unconjugated EGF (modified EGF not conjugated to genistein) at a dose level of 0.1 mg/kg/dose, once in the morning and once in the evening. For 14 day treatment, this dose represents a cumulative total dose level of 2.8 mg/kg and 2% of the highest nontoxic cumulative dosed tested in toxicity studies (Uckun et al., 1998, Clinical Cancer Res 5:1125-1134). For 28 day treatment, this dose represents a cumulative total dose level of 5.6 mg/kg and 4% of the highest nontoxic cumulative dosed tested in toxicity studies. Control animals were injected with 2 mg/kg/dose of unconjugated genistein or derivatives of 6, 7-dimethoxyquinizalone dissolved in 10% DMSO once per day or with PBS. […]
# [2] = tested on: breast cancer cells; conditions: U.S. patent application Ser. No. 08/602,186; cited from earlier work
# [3] = tested on: vascular smooth muscle cells (VSMC); assay: Migration of VSMC through Matrigel matrix-coated Boyden chambers; format: cell-based; conditions: for Effect on migration of VSMC (in words): EGF-gen 0.25, 0.5, 1 μg/ml or EGF 1 μg/ml, overnight
# Experimental: Migration of VSMC through Matrigel™ matrix was performed as described above for Example 4.
# FIGS. 7A-7E show the morphological features of migrated VSMC incubated with 0.25 μg/ml (FIG. 7B), 0.5 μg/ml (FIG. 7C), or 1 μg/ml (FIG. 7D) of EGF-gen or with 1 μg/ml EFG (FIG. 7E), overnight. The control (FIG. 7A) was untreated. The cells were then trypsinized and processed for the migration assay using Matrigel™ matrix-coated boyden chambers. Cells migrated through the matrigel and were counted and expressed as % of controls. FIG. 7F is a bar graph showing the dose dependent inhibition of migration by EGF-Gen.
Molecule,"Stenosis Index (Mean ± SE), neointima/media ratio in areas of maximum neointimal hyperplasia, 2 weeks ([1]; i.p.)","Mice with neointimal hyperplasia detected, 2 weeks after vascular injury ([1]; i.p. 0.1 mg/kg/dose twice daily, 0.1 mg/kg)","Stenosis Index (Mean ± SE), neointima/media ratio in areas of maximum neointimal hyperplasia, 4 weeks ([1]; 4 weeks after injury, i.p., EGF-Gen 0.1 mg/kg/dose twice daily for 28 days, Gen or quinazolines 2 mg/kg/dose once per day in 10% DMSO)","Mice with neointima detected, 4 weeks post injury ([1]; 4 weeks, i.p. 0.1 mg/kg/dose twice daily)",Effect on neointimal hyperplasia / neointima formation (in words) [1],Effect on neointimal hyperplasia / neointima formation (in words) ([1]; listed as EGF-Genistein),Potency of the conjugate relative to unconjugated Genistein [2] [fold],Effect on migration of VSMC (in words) [3],"Concentration giving complete cessation of in vitro migration of VSMC ([3]; overnight incubation, then Matrigel migration assay) [µg/mL]","Stenosis Index (Mean ± SE), neointima/media ratio in areas of maximum neointimal hyperplasia, 2 weeks ([1]; i.p., listed as unconjugated EGF)","Mice with neointimal hyperplasia detected, 2 weeks after vascular injury ([1]; i.p. 0.1 mg/kg/dose twice daily)"
"EGF-Gen: rhEGF linked via the photoreactive cross-linker Sulfo-SANPAH to genistein at its C7 hydroxyl group (conjugate, UniProt P01133 23-1207, looked up, Pro-epidermal growth factor genistein via Sulfo-SANPAH cross-linker) Pro-epidermal growth factor: PQHWSCPEGTLAGNGNSTCVGPAPFLIFSHGNSIFRIDTEGTNYEQLVVDAGVSVIMDFHYNEKRIYWVDLERQLLQRVFLNGSRQERVCNIEKNVSGMAINWINEEVIWSNQQEGIITVTDMKGNNSHILLSALKYPANVAVDPVERFIFWSSEVAGSLYRADLDGVGVKALLETSEKITAVSLDVLDKRLFWIQYNREGSNSLICSCDYDGGSVHISKHPTQHNLFAMSLFGDRIFYSTWKMKTIWIANKHTGKDMVRINLHSSFVPLGELKVVHPLAQPKAEDDTWEPEQKLCKLRKGNCSSTVCGQDLQSHLCMCAEGYALSRDRKYCEDVNECAFWNHGCTLGCKNTPGSYYCTCPVGFVLLPDGKRCHQLVSCPRNVSECSHDCVLTSEGPLCFCPEGSVLERDGKTCSGCSSPDNGGCSQLCVPLSPVSWECDCFPGYDLQLDEKSCAASGPQPFLLFANSQDIRHMHFDGTDYGTLLSQQMGMVYALDHDPVENKIYFAHTALKWIERANMDGSQRERLIEEGVDVPEGLAVDWIGRRFYWTDRGKSLIGRSDLNGKRSKIITKENISQPRGIAVHPMAKRLFWTDTGINPRIESSSLQGLGRLVIASSDLIWPSGITIDFLTDKLYWCDAKQSVIEMANLDGSKRRRLTQNDVGHPFAVAVFEDYVWFSDWAMPSVMRVNKRTGKDRVRLQGSMLKPSSLVVVHPLAKPGADPCLYQNGGCEHICKKRLGTAWCSCREGFMKASDGKTCLALDGHQLLAGGEVDLKNQVTPLDILSKTRVSEDNITESQHMLVAEIMVSDQDDCAPVGCSMYARCISEGEDATCQCLKGFAGDGKLCSDIDECEMGVPVCPPASSKCINTEGGYVCRCSEGYQGDGIHCLDIDECQLGEHSCGENASCTNTEGGYTCMCAGRLSEPGLICPDSTPPPHLREDDHHYSVRNSDSECPLSHDGYCLHDGVCMYIEALDKYACNCVVGYIGERCQYRDLKWWELRHAGHGQQQKVIVVAVCVVVLVMLLLLSLWGAHYYRTQKLLSKNPKNPYEESSRDVRSRRPADTEDGMSSCPQPWFVVIKEHQDLKNGGQPVAGEDGQAADGSMQPTSWRQEPQLCGMGTEQGCWIPVSSDKGSCPQVMERSFHMPSYGTQTLEGGVEKPHSLLSANPLWQQRALDPPHQMELTQ",0.0±0.0,none of the 5; also recorded: none of the five,0.59±0.16,all of the 24,significantly reduced the magnitude of neointimal hyperplasia,suppressed migration of myofibroblasts into the mural thrombus and the formation of neointima,1000,inhibited the migration of VSMC in a dose dependent fashion,1,,
"EGF: unconjugated EGF (modified EGF not conjugated to genistein) (protein, UniProt P01133 23-1207, looked up, Pro-epidermal growth factor) Pro-epidermal growth factor: PQHWSCPEGTLAGNGNSTCVGPAPFLIFSHGNSIFRIDTEGTNYEQLVVDAGVSVIMDFHYNEKRIYWVDLERQLLQRVFLNGSRQERVCNIEKNVSGMAINWINEEVIWSNQQEGIITVTDMKGNNSHILLSALKYPANVAVDPVERFIFWSSEVAGSLYRADLDGVGVKALLETSEKITAVSLDVLDKRLFWIQYNREGSNSLICSCDYDGGSVHISKHPTQHNLFAMSLFGDRIFYSTWKMKTIWIANKHTGKDMVRINLHSSFVPLGELKVVHPLAQPKAEDDTWEPEQKLCKLRKGNCSSTVCGQDLQSHLCMCAEGYALSRDRKYCEDVNECAFWNHGCTLGCKNTPGSYYCTCPVGFVLLPDGKRCHQLVSCPRNVSECSHDCVLTSEGPLCFCPEGSVLERDGKTCSGCSSPDNGGCSQLCVPLSPVSWECDCFPGYDLQLDEKSCAASGPQPFLLFANSQDIRHMHFDGTDYGTLLSQQMGMVYALDHDPVENKIYFAHTALKWIERANMDGSQRERLIEEGVDVPEGLAVDWIGRRFYWTDRGKSLIGRSDLNGKRSKIITKENISQPRGIAVHPMAKRLFWTDTGINPRIESSSLQGLGRLVIASSDLIWPSGITIDFLTDKLYWCDAKQSVIEMANLDGSKRRRLTQNDVGHPFAVAVFEDYVWFSDWAMPSVMRVNKRTGKDRVRLQGSMLKPSSLVVVHPLAKPGADPCLYQNGGCEHICKKRLGTAWCSCREGFMKASDGKTCLALDGHQLLAGGEVDLKNQVTPLDILSKTRVSEDNITESQHMLVAEIMVSDQDDCAPVGCSMYARCISEGEDATCQCLKGFAGDGKLCSDIDECEMGVPVCPPASSKCINTEGGYVCRCSEGYQGDGIHCLDIDECQLGEHSCGENASCTNTEGGYTCMCAGRLSEPGLICPDSTPPPHLREDDHHYSVRNSDSECPLSHDGYCLHDGVCMYIEALDKYACNCVVGYIGERCQYRDLKWWELRHAGHGQQQKVIVVAVCVVVLVMLLLLSLWGAHYYRTQKLLSKNPKNPYEESSRDVRSRRPADTEDGMSSCPQPWFVVIKEHQDLKNGGQPVAGEDGQAADGSMQPTSWRQEPQLCGMGTEQGCWIPVSSDKGSCPQVMERSFHMPSYGTQTLEGGVEKPHSLLSANPLWQQRALDPPHQMELTQ",0.63 ± 0.20,,,,ineffective,,,significantly promoted the migration,,0.63±0.20,6 of 8
